Test system: Escherichia coli TOP10
Experiment: shrunken log2 fold change of peptide-encoding DNA abundance (4.5 h post-induction vs induction); higher = less antimicrobial activity (less host growth inhibition)
Settings: time post-induction: 4.5 h; library: site-saturation at positions 5, 18, 19, 20
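Also: peptides expressed intracellularly from a pBAD plasmid library in pooled LB shake-flask culture, induced with 0.3% L-arabinose, DNA abundance read by NGS, three biological replicates, DESeq2 with apeglm shrinkage.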

Sequence	shrunken log2 fold change
RRIRKRPPRLPRPRPRPFPSPRP	0.175
RRIRNRPPRLPRPRPRPDPYPRP	-0.319
RRIRFRPPRLPRPRPRPDMRPRP	-0.000242
RRIRERPPRLPRPRPRPTSEPRP	0.0668
RRIRTRPPRLPRPRPRPEMHPRP	-0.149
RRIRCRPPRLPRPRPRPGGKPRP	-0.0361
RRIRMRPPRLPRPRPRPHGYPRP	0.185
RRIRYRPPRLPRPRPRPRWHPRP	-0.124
RRIRERPPRLPRPRPRPGQRPRP	-0.0192
RRIRPRPPRLPRPRPRPTDRPRP	0.121
RRIRKRPPRLPRPRPRPYQTPRP	0.0193
RRIRFRPPRLPRPRPRPWEPPRP	-0.373
RRIRMRPPRLPRPRPRPRGRPRP	1.2
RRIRMRPPRLPRPRPRPEEKPRP	2.64
RRIRDRPPRLPRPRPRPLIFPRP	0.135
RRIRPRPPRLPRPRPRPAGFPRP	0.301
RRIRDRPPRLPRPRPRPATIPRP	0.0807
RRIRKRPPRLPRPRPRPPIYPRP	0.0758
RRIRCRPPRLPRPRPRPFELPRP	-0.0697
RRIRERPPRLPRPRPRPPVIPRP	-0.257
RRIRRRPPRLPRPRPRPMIAPRP	0.121
RRIRPRPPRLPRPRPRPTTQPRP	0.0237
RRIRTRPPRLPRPRPRPPDYPRP	-0.0981

Sequence	shrunken log2 fold change
RRIRARPPRLPRPRPRPSNEPRP	0.167
RRIRSRPPRLPRPRPRPELIPRP	-0.123
RRIRNRPPRLPRPRPRPDHYPRP	-0.202
RRIRIRPPRLPRPRPRPALPPRP	-0.0671
RRIRMRPPRLPRPRPRPPWGPRP	0.686
RRIRNRPPRLPRPRPRPCRVPRP	-0.0128
RRIRKRPPRLPRPRPRPSESPRP	0.0559
RRIRQRPPRLPRPRPRPAHSPRP	0.426
RRIRYRPPRLPRPRPRPCEDPRP	-0.371
RRIRYRPPRLPRPRPRPFINPRP	-1.17
RRIRGRPPRLPRPRPRPDMQPRP	0.37
RRIRYRPPRLPRPRPRPTCYPRP	-0.582
RRIRIRPPRLPRPRPRPVRQPRP	-0.0328
RRIRARPPRLPRPRPRPDSTPRP	-0.0804
RRIRSRPPRLPRPRPRPFERPRP	-0.00192
RRIRLRPPRLPRPRPRPKQIPRP	0.0389
RRIRGRPPRLPRPRPRPPVGPRP	0.579
RRIRLRPPRLPRPRPRPDFTPRP	0.102
RRIRARPPRLPRPRPRPCTHPRP	-0.182
RRIRSRPPRLPRPRPRPWTRPRP	0.0569
RRIRMRPPRLPRPRPRPDLQPRP	0.461
RRIRLRPPRLPRPRPRPERQPRP	0.0746
RRIRMRPPRLPRPRPRPSPSPRP	0.588

Sequence	shrunken log2 fold change
RRIRERPPRLPRPRPRPFCIPRP	-0.346
RRIRCRPPRLPRPRPRPLSNPRP	0.504
RRIRDRPPRLPRPRPRPMEFPRP	-0.0018
RRIRQRPPRLPRPRPRPDPYPRP	0.032
RRIRSRPPRLPRPRPRPSWGPRP	-0.114
RRIRFRPPRLPRPRPRPEMAPRP	0.635
RRIRPRPPRLPRPRPRPEALPRP	0.439
RRIRSRPPRLPRPRPRPRQWPRP	0.69
RRIRQRPPRLPRPRPRPKWVPRP	0.0809
RRIRRRPPRLPRPRPRPNIDPRP	-0.0882
RRIRGRPPRLPRPRPRPVGSPRP	0.749
RRIRSRPPRLPRPRPRPFEGPRP	0.123
RRIRERPPRLPRPRPRPQMIPRP	0.132
RRIRQRPPRLPRPRPRPVFTPRP	-0.217
RRIRKRPPRLPRPRPRPACEPRP	0.168
RRIRQRPPRLPRPRPRPLPIPRP	0.231
RRIRNRPPRLPRPRPRPIFMPRP	-0.116
RRIRMRPPRLPRPRPRPYMGPRP	-0.0411
RRIRFRPPRLPRPRPRPPNIPRP	-0.185
RRIRVRPPRLPRPRPRPGDMPRP	-0.136
RRIRDRPPRLPRPRPRPWVGPRP	0.0332
RRIRHRPPRLPRPRPRPCIYPRP	-0.196
RRIRWRPPRLPRPRPRPGWNPRP	0.238

Sequence	shrunken log2 fold change
RRIRCRPPRLPRPRPRPKYTPRP	-0.511
RRIRERPPRLPRPRPRPQQDPRP	-0.108
RRIRQRPPRLPRPRPRPVHHPRP	0.04
RRIRNRPPRLPRPRPRPNLFPRP	-0.225
RRIRNRPPRLPRPRPRPVRYPRP	-0.0196
RRIRFRPPRLPRPRPRPMTYPRP	-0.0939
RRIRQRPPRLPRPRPRPRKDPRP	-0.16
RRIRYRPPRLPRPRPRPLQRPRP	-0.208
RRIRLRPPRLPRPRPRPVTGPRP	-0.121
RRIRMRPPRLPRPRPRPGQKPRP	0.142
RRIRFRPPRLPRPRPRPMSVPRP	-0.482
RRIRERPPRLPRPRPRPCPDPRP	-0.0864
RRIRQRPPRLPRPRPRPRAWPRP	0.123
RRIRIRPPRLPRPRPRPILHPRP	-0.469
RRIRHRPPRLPRPRPRPRAVPRP	0.518
RRIRCRPPRLPRPRPRPQDNPRP	-0.285
RRIRIRPPRLPRPRPRPGDWPRP	0.585
RRIRLRPPRLPRPRPRPACSPRP	0.0854
RRIRWRPPRLPRPRPRPSMPPRP	-0.423
RRIRTRPPRLPRPRPRPAGEPRP	0.323
RRIRKRPPRLPRPRPRPHTRPRP	0.29
RRIRPRPPRLPRPRPRPQYGPRP	-0.725
